From article PMC6882875

Assays:
Assay in all cases: EMSA
Settings in all cases: EMSA: binding buffer stock 80 mM Tris-HCl pH 8.0, 20 mM MgCl2, 2 mM DTT, 4 mM EDTA, 400 mM KCl, 40% glycerol (final dilution not stated); poly(dI-dC) …
[1] = test system: AraQ (Bifidobacterium breve UCC2003)
[2] = test system: MalR1 (Bifidobacterium breve UCC2003)
[3] = test system: T1, MalR1 (Bifidobacterium breve UCC2003), ORF:82221dfa
T1 sequence: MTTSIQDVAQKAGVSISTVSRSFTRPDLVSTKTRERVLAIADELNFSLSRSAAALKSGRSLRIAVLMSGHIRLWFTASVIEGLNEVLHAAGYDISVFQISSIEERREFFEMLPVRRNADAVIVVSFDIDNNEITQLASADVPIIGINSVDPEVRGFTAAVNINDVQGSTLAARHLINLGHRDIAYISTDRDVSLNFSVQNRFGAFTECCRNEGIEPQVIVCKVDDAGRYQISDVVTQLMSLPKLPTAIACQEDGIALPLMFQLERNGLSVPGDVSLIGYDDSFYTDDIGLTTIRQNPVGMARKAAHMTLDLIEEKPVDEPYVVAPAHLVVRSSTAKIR

[4] = test system: T2, AraQ (Bifidobacterium breve UCC2003), ORF:c628000b
T2 sequence: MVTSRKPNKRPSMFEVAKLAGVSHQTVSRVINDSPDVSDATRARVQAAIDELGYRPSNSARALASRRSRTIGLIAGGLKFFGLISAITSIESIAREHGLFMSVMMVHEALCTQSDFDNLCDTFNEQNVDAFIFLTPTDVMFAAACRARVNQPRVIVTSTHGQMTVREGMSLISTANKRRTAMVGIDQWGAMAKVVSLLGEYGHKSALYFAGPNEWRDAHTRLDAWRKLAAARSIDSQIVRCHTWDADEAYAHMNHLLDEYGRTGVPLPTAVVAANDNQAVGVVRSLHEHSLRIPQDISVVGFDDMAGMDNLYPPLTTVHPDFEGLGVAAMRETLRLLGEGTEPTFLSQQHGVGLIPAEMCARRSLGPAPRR

Substance | binding signal [1] [% bound] | binding signal [2] [% bound] | binding signal [3] | binding signal [4]
Bbr_1420 promoter | 0 | < 15 |  | 
Bbr_1658 promoter | 0 | 0 |  | 
Bbr_1659 promoter | 0 | 0 |  | 
Bbr_1841 promoter | < 15 | 0 |  | 
Bbr_1894 (PTS) promoter |  | < 15 |  | 
CATACGCCTCTCGCTTTCGTCATTGGGCCGACGTCACTGCCGGCACAAAACCGCGACACATGTATGCGTCTTGGTCAACGCTGAATCGTCTCATCACTGAAATGATTTAACGTTTAATCACTTGCGTGATTCATAATATATCGTTTAATCACAGGGGTCAATCAGCGTGTCGAGAGCGTTAACAATCGCGTCCTAACGCCATTACCAGCACATCAGAAACACAATATGGCACAAAAAAAGACAAAATATTGGCGGCGAAGGACTATTGAGC (double strand) [rbsA1 promoter] |  |  | binds | 0 % bound
CGAATGCCATATCCGTCTCCTCCTTGCGGCTTACTGCAGCGTTAGAAATGCACAATTCAAATGTACCCTTCTTATAACCGACGCCCGCAAGGTCGTGTCATGCGTCAAACTCTTTTACTGCAGACATTTTTGAGGCTTCTGCTGTTTTCGTGGGCTAGCTGACTGGTTCCGGTAGTCGGATGTCGAGTCCGCCGCATCTGAGCATGATC (double strand) [Bbr_1420 promoter] |  |  | < 15 % bound | 0 % bound
CGACAGCTTCCTTGCCATGCTGGCCCTCCTTTATTTTCCAACCCTCGGTTTTCCGCATTGTGCAATCTGCATTGTTTGCCTTGCGGAATCTTAGGAAATTATTTTCCTAAAATGTTTTCTTGAGATAAGATTATAGGACGCCAACGTCAGTGTCAACACGGCGGGTCGAGGGTCGCACAACCCGGACCGAACGGCCCACAATGGCGACGTAGCAAGGAACAGAACGCTACGCCCTTGTACACTGATACAGAGGAAAACAGGCAGGAGGGGAGACATGAACATCAGGGACATCGCACGC (double strand) [Bbr_1841 promoter] |  |  | 0 % bound | < 15 % bound
CTTCGCCACGTCATACACCGTTGCCCTACGCATGATTCCTACTTTAATCGATTCCGGAGGTCAGCACACGTTCGACCTGAATCTAAAAAAAGTTTTAGTGGCTTTCCTGTCAATCTCGCATGCATACTTCAGGTTACGGGCGCAGCACCCAATAATGGGTACCGCGCCTTAATGACCGCTACACGAGCAGTCTCAGCAACTGGTAAAGCTGCCATAGGCTGCGCACGTTG (double strand) [Bbr_1659 promoter] |  |  | 0 % bound | 0 % bound
GATGAGTGCGCGTGAGAAGAAGAAGGCTGCCGTAGAAGCGAAATAATCGGTGCATGGCCGCTCTGCAGATATATGGAGGGCGGTCTGCGAACCGCCGGGAATGGGTTGCCAATCCCGGCGGTTTGTGTATCCGTGGCGCAGTACAGTCGTAAAGGAAGGCAAGGAGGACAACCATGGCGGAAGGTGTACCGAAGTATATTGCGGTTAGGGACAATCTTCGCCAGCGTG (double strand) [gntR promoter] |  |  | 0 % bound | 0 % bound
GCGTTCTATCCTTGCACTGAGCCACGAAAGACGGCATTGTGCAAACGATGGCATACTGTGGGATGCGGAATGACAAGACATGTGATACTCTCTGACTGAGAACGTATGCAACAACTGTCTGCCAACGCTGTTACAGAGAGTTCATGCACACGTTTATGCGACGATACCAATCGCGCGGCATAATAAGCACGGGCACTTATCCCGGAAGGAAAGTCAGAATG (double strand) [glgP1 promoter] |  |  | 0 % bound | binds
GCTCGCTTTTGCCATGGCAACCTCGCTCATCAACAGTGGATAACAATCCCGCTCAAAAGACAACGTTATCATACCTAAGCGAGCAACATGCACGCCACGCTGTCTATTTAGAAGTGCAACGCCCCTGTTCGTCGGCTAATTCTTGCAGTTCGTCGGTGAATGCCCCGGGCCCCCGGATTCAACTTGTAAGTGCAACGGCTGGTTTCGG (double strand) [malR2 promoter] |  |  | 0 % bound | binds
GGTCAAGCTCATCGTGCGGGGCAGCTGTGGGTGCTGATTATTTCTTGAAGAAGGCTAAATAAGGCTTTTGAGACCTCCTGCAGGGGAGTCACTGTTGATGCTGTTTCGTCGTGTCGAATCGGTTCGCGAGTTGACAAACAAAAAACTATGCGCTTAAATATTAATCACAATCTACGCGGTTAGATTGTTGAGAAGTAACAGTTCAAGGAGGAACGAGGAATGAAGCGAAGCATGTTCAAGATGGCGACTGCCATCATCGCCAGTGCGGCTATGCTGACCAG (double strand) [Bbr_1658 promoter] |  |  | 0 % bound | 0 % bound
GGTTGTCGTAATCCTCGGTGGAAGGACCGATGGTGTCTACGATCTTGGCTTTACGCATGAATGCCTGCCTATTCTTGTTCTTTTTTGGTTCGAGGCGCGATTGCCTCACTTGCCGCAGCCCAGTCTACTAGCGCAGACCGGCTCATGACAAGTTTATTCCCCGGTGTGTTGTGAGCGCTCACACTGTTGCGCCGATTGGGTTTTGAGGGGTTGATTTCCCTATGATTTCAGGCCTTCTCAGCG (double strand) [pyk promoter] |  |  | binds | binds
agl3 promoter | 0 | 0 |  | 
cldE promoter | 0 |  |  | 
cldR promoter | 0 | 0 |  | 
glgP1 promoter |  | 0 |  | 
glgP2 promoter | 0 | 0 |  | 
gntR promoter | 0 | 0 |  | 
malE promoter |  | 0 |  | 
malG2 (F2) promoter |  | 0 |  | 
malQ promoter | < 15 | 0 |  | 
malR2 promoter |  | 0 |  | 
malR3/apuB intergenic region | < 15 | < 15 |  | 
malR5/malE2 intergenic region | < 15 | < 15 |  | 
nrdH promoter |  | 0 |  | 
rbsA1 promoter | 0 |  |  | 
